Measurements published in patent US20180066060A1.

Target: human CD303 antigen (human) (UniProt Q8WTT0)
Assay: cell-based or functional assay

human CD303 antigen (human), sequence (Q8WTT0 whole entry): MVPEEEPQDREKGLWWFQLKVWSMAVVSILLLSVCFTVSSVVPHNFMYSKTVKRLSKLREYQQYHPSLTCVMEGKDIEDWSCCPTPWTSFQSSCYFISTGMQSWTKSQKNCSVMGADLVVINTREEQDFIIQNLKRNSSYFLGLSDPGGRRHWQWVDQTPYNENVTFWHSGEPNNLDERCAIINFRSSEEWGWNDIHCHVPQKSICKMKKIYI

- EC50 (ng/mL), ADCC activity via CD16a: 1.68 ng/mL
- Emax (% lysis), ADCC activity via CD16a: 29.3 % lysis
B1: humanized anti-CD303 antibody BIIB059 (antibody, INN chains, looked up, V domains shown)
VH: DVQLVESGGGLVKPGGSLRLSCAASGFTFSTYTMSWVRQAPGKGLEWVATISPGDSFGYYYPDSVQGRFTISRDNAKNSLYLQMNSLRAEDTAVYYCTRDIYYNYGAWFAYWGQGTLVTVSS
VL: DIQLTQSPSSLSASVGDRVTITCKASQSVDYDGDSYMNWYQQKPGKAPKLLIYAASTLESGVPSRFSGSGSGTDFTLTISSLQPEDFATYYCQQANEDPRTFGQGTKVEIK
